Measured values as given in US12545899B2, “Luciferase enzymes for use with thermostable luciferins in bioluminescent assays” (Promega Corporation, priority 2018, dated 2026).

B1: MK0109: SEQ ID NO: 76; S193A (protein)
chain: MADKNILYGPEPFYPLEDGTAGEQMFDALSRYAAIPGCIALTNAHTKENVLYEEFLKLSCRLAESFKKYGLKQNDTIAVCSENSLQFFLPVIASLYLGIIVAPVNDKYIERELIHSLGIVKPRIVFCSKNTFQKVLNVKSKLKSIETIIILDLNEDLGGYQCLNNFISQNSDSNLDVKKFKPYSFNRDDQVAAIMFSSGTTGLPKGVMLTHKNIVARFSIAKDPTFGDAINPTSAILTVIPFHWGFGMMTTLGYFTCGFRVVLMHTFEEKLFLQSLQDYKVESTLLVPTLMAFLAKSALVEKYDFPHLKEIASGGAPLSKEIGEMVKKRFKLNFVRQGYGLTEATSAVLITPKGDAKPGSTGKIVPLHAVKVVDPTTGKILGPNEPGELYFKGPMKMKGYYNNEEATKAIIDNDGWLRSGDIAYYDNDGHFYIVDRLKSLIKYKGYQVAPAEIEGILLQHPYIVDAGVTGIPDEAAGELPAAGVVVQTGKYLNEQIVQDYVASQVSTAKWLRGGVKFLDEIPKGSTGKIDRKVLRQMLEKHTNGHHHHHHHH
B2: MK0133: SEQ ID NO: 101; H244W+T344I+I396K+S193A+N228D+L305F+S306P+I109V+C38R+F55I+A316W+T342S+V348I (protein)
chain: MADKNILYGPEPFYPLEDGTAGEQMFDALSRYAAIPGRIALTNAHTKENVLYEEILKLSCRLAESFKKYGLKQNDTIAVCSENSLQFFLPVIASLYLGIIVAPVNDKFVERELIHSLGIVKPRIVFCSKNTFQKVLNVKSKLKSIETIIILDLNEDLGGYQCLNNFISQNSDSNLDVKKFKPYSFNRDDQVAAIMFSSGTTGLPKGVMLTHKNIVARFSIAKDPTFGDAINPTSAILTVIPFHWGFGMMTTLGYFTCGFRVVLMHTFEEKLFLQSLQDYKVESTLLVPTLMAFLAKSALVEKYDFPHLKEIASGGWPLSKEIGEMVKKRFKLNFVRQGMGLTEITSAVLITPKGDAKPGSTGKIVPLHAVKVVDPTTGKILGPNEPGELYFKGPMKMKGYYNNEEATKAIIDNDGWLRSGDIAYYDNDGHFYIVDRLKSLIKYKGYQVAPAEIEGILLQHPYIVDAGVTGIPDEAAGELPAAGVVVQTGKYLNEQIVQDYVASQVSTAKWLRGGVKFLDEIPKGSTGKIDRKVLRQMLEKHTNGHHHHHHHH
B3: MK0134: SEQ ID NO: 102; H244W+T344A+I396K+S193A+N228D+L305F+S306P+I109V+C38R+F55I+Y108F+A316W+Y339M (protein)
chain: MADKNILYGPEPFYPLEDGTAGEQMFDALSRYAAIPGRIALTNAHTKENVLYEEILKLSCRLAESFKKYGLKQNDTIAVCSENSLQFFLPVIASLYLGIIVAPVNDKYVERELIHSLGIVKPRIVFCSKNTFQKVLNVKSKLKSIETIIILDLNEDLGGYQCLNNFISQNSDSNLDVKKFKPYSFNRDDQVAAIMFSSGTTGLPKGVMLTHKNIVARFSIAKDPTFGDAINPTSAILTVIPFHWGFGMMTTLGYFTCGFRVVLMHTFEEKLFLQSLQDYKVESTLLVPTLMAFLAKSALVEKYDFPHLKEIASGGWPLSKEIGEMVKKRFKLNFVRQGYGLSEITSAILITPKGDAKPGSTGKIVPLHAVKVVDPTTGKILGPNEPGELYFKGPMKMKGYYNNEEATKAIIDNDGWLRSGDIAYYDNDGHFYIVDRLKSLIKYKGYQVAPAEIEGILLQHPYIVDAGVTGIPDEAAGELPAAGVVVQTGKYLNEQIVQDYVASQVSTAKWLRGGVKFLDEIPKGSTGKIDRKVLRQMLEKHTNGHHHHHHHH
B4: MK0137: SEQ ID NO: 105; H244W+S193A+N228D+L305F+S306P+I109V+C38R+F55I+Y108F+A316W+Y339M+T342S+V348I (protein)
chain: MADKNILYGPEPFYPLEDGTAGEQMFDALSRYAAIPGRIALTNAHTKENVLYEEILKLSCRLAESFKKYGLKQNDTIAVCSENSLQFFLPVIASLYLGIIVAPVNDKFVERELIHSLGIVKPRIVFCSKNTFQKVLNVKSKLKSIETIIILDLNEDLGGYQCLNNFISQNSDSNLDVKKFKPYSFNRDDQVAAIMFSSGTTGLPKGVMLTHKNIVARFSIAKDPTFGDAINPTSAILTVIPFHWGFGMMTTLGYFTCGFRVVLMHTFEEKLFLQSLQDYKVESTLLVPTLMAFLAKSALVEKYDFPHLKEIASGGWPLSKEIGEMVKKRFKLNFVRQGMGLTEITSAVLITPKGDAKPGSTGKIVPLHAVKVVDPTTGKILGPNEPGELYFKGPMKMKGYYNNEEATKAIIDNDGWLRSGDIAYYDNDGHFYIVDRLKSLIKYKGYQVAPAEIEGILLQHPYIVDAGVTGIPDEAAGELPAAGVVVQTGKYLNEQIVQDYVASQVSTAKWLRGGVKFLDEIPKGSTGKIDRKVLRQMLEKHTNGHHHHHHHH
B5: MK0135: SEQ ID NO: 103; H244W+S193A+N228D+L305F+S306P+I109V+C38R+F55I+A316W+T342S+V348I (protein)
chain: MADKNILYGPEPFYPLEDGTAGEQMFDALSRYAAIPGRIALTNAHTKENVLYEEILKLSCRLAESFKKYGLKQNDTIAVCSENSLQFFLPVIASLYLGIIVAPVNDKFVERELIHSLGIVKPRIVFCSKNTFQKVLNVKSKLKSIETIIILDLNEDLGGYQCLNNFISQNSDSNLDVKKFKPYSFNRDDQVAAIMFSSGTTGLPKGVMLTHKNIVARFSIAKDPTFGDAINPTSAILTVIPFHWGFGMMTTLGYFTCGFRVVLMHTFEEKLFLQSLQDYKVESTLLVPTLMAFLAKSALVEKYDFPHLKEIASGGWPLSKEIGEMVKKRFKLNFVRQGMGLTEATSAVLITPKGDAKPGSTGKIVPLHAVKVVDPTTGKILGPNEPGELYFKGPMKMKGYYNNEEATKAIIDNDGWLRSGDIAYYDNDGHFYIVDRLKSLIKYKGYQVAPAEIEGILLQHPYIVDAGVTGIPDEAAGELPAAGVVVQTGKYLNEQIVQDYVASQVSTAKWLRGGVKFLDEIPKGSTGKIDRKVLRQMLEKHTNGHHHHHHHH

Key:
[1] = Differential scanning fluorimetry (DSF) analysis; format: physicochemical
Outline: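 Thermal melt with 5× final Sypro Orange: ramp 1° C/min from 30 to 95° C, reading each 60 s, derivative of fluorescence plotted by temperature. Luciferase variants were in 20 mM HEPES pH 7.5, 200 mM NaCl, 1 mM EDTA; other enzymes in 50 mM HEPES pH 7.5, 100 mM NaCl, 2 mM EDTA.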

[2] = Effect of individual mutations: maximum luminescence with CS0333; format: biochemical; settings: 10 fM to 1 mM CS0333; Detection Reagent (DR) buffer
Method: Experiments were also conducted to evaluate and compare the activities of the various luciferase enzyme variants, including the effects of individual amino acid mutations. To evaluate the effect of individual mutations on luciferase enzyme variants, 0.005 mg/ml luciferase enzyme variant was mixed with 1 mM ATP+10 fM to 1 mM CS0333 in Detection Reagent (DR) buffer.

[3] = Kinetic analysis of thermostable variants with CS0280 (Table 10); format: biochemical
Method: (§1) Experiments were also conducted to evaluate the activities (i.e. Vmax and Km) of the various thermostable luciferase variants of Ppe (SEQ ID NO: 1) described above.
(§2) Tables 10 and 11 include representative results of kinetic analysis of the thermostable variants with D/L luciferin, CS0333, and CS0280. […] MK0135 and MK0137 have amino acid substitutions that improve thermostability relative to MK0133 and MK0134, respectively, while retaining activity on the luciferin analogs CS0333 and CS0280.

[4] = Kinetic analysis of thermostable variants with D/L-luciferin (Table 10); format: biochemical
Method: as §1, §2

[5] = Kinetic analysis of thermostable variants with CS0333 (Table 10); format: biochemical
Method: as §1, §2

[6] = Luminescence at 1 mM D/L-luciferin (Table 11); format: biochemical; settings: 1 mM substrate, 1 mM ATP
Text: as §2

[7] = Kinetic analysis of thermostable variants with CS0280 (Tables 13, 14); format: biochemical; settings: 2 mM ATP
[8] = Kinetic analysis of thermostable variants with CS0333 (Tables 13, 14); format: biochemical; settings: 2 mM ATP
[9] = Kinetic analysis of thermostable variants with D/L-luciferin (Tables 13, 14); format: biochemical; settings: 2 mM ATP
[10] = Luminescence at 1 mM CS0333 (Table 11); format: biochemical; settings: 1 mM substrate, 1 mM ATP
Text: as §2

[11] = Luminescence at 1 mM CS0280 (Table 11); format: biochemical; settings: 1 mM substrate, 1 mM ATP
Text: as §2

Molecule	Km ([3]; BrightGlo Buffer) [µM]	Vmax (RLU) ([3]; BrightGlo Buffer)	Km ([3]; Detection Reagent Buffer) [µM]	Vmax (RLU) ([3]; Detection Reagent Buffer)	Km ([4]; BrightGlo Buffer) [µM]	Vmax (RLU) ([4]; BrightGlo Buffer)	Km ([4]; Detection Reagent Buffer) [µM]	Vmax (RLU) ([4]; Detection Reagent Buffer)	Km ([5]; BrightGlo Buffer) [µM]	Vmax (RLU) ([5]; BrightGlo Buffer)	Km ([5]; Detection Reagent Buffer) [µM]	Vmax (RLU) ([5]; Detection Reagent Buffer)	DSF Tm (° C.) ([1]; Table 9B) [°C]	also measured
B1														DSF Tm (° C.) ([1]; Table 9A): 77 °C; Vmax (RLU) with CS0333 [2]: 1,114 RLU
B2	5.36	2,774,469 RLU	41.6	266,359 RLU	0.13	1,361,878 RLU	0.993	1,545,274 RLU	14	27,149,096 RLU	77.4	21,861,957 RLU	59	
B3	1.21	15,499,640 RLU	6.12	1,208,016 RLU	0.0257	377,267 RLU	0.161	430,060 RLU	2.24	11,167,451 RLU	26.5	9,278,637 RLU	57	
B4	2.92	2,255,088 RLU	18.9	109,120 RLU	0.0368	279,889 RLU	0.196	40,917 RLU	7.17	5,453,269 RLU	80.5	3,679,125 RLU	69	Vmax (RLU) D/L-luciferin BrightGlo Buffer ([6]; BrightGlo Buffer): 326,347 RLU; Vmax (RLU) D/L-luciferin Detection Reagent Buffer ([6]; Detection Reagent Buffer): 48,315 RLU; Km ([7]; BrightGlo Buffer): 4.08 µM; Vmax (RLU) ([7]; BrightGlo Buffer): 825,876 RLU; Km ([7]; Detection Reagent Buffer): 535 µM; Vmax (RLU) ([7]; Detection Reagent Buffer): 88,972 RLU; Km ([8]; BrightGlo Buffer): 4.27 µM; Vmax (RLU) ([8]; BrightGlo Buffer): 3,236,246 RLU; Km ([8]; Detection Reagent Buffer): 18.8 µM; Vmax (RLU) ([8]; Detection Reagent Buffer): 668,831 RLU; Km ([9]; BrightGlo Buffer): 0.0835 µM; Vmax (RLU) ([9]; BrightGlo Buffer): 253,978 RLU; Km ([9]; Detection Reagent Buffer): 0.306 µM; Vmax (RLU) ([9]; Detection Reagent Buffer): 29,013 RLU; Vmax (RLU) CS0333 BrightGlo Buffer ([10]; BrightGlo Buffer): 3,882,620 RLU; Vmax (RLU) CS0333 Detection Reagent Buffer ([10]; Detection Reagent Buffer): 3,127,710 RLU; Vmax (RLU) CS0280 BrightGlo Buffer ([11]; BrightGlo Buffer): 1,931,470 RLU; Vmax (RLU) CS0280 Detection Reagent Buffer ([11]; Detection Reagent Buffer): 117,973 RLU
B5	22	343,822 RLU	150	15,983 RLU	0.157	490,914 RLU	0.746	93,531 RLU	43.4	4,782,661 RLU	509	1,018,125 RLU	78	
